Reference: PMC4598023 (PLoS ONE, 2015)
Bridges are numbered along the chain shown (N, C = ends). Where no end group is shown, it is not given here.

How the values were obtained:
[1] = Amylin aggregation by ThT fluorescence, up to 7 days in PBS pH 7.4; type: physicochemical; conditions: PBS pH 7.4, 25°C, followed up to 7 days
Method: In this case, at the indicated time 160 μL sample were mixed with 40 μL ThT 100 μM. In both cases the thioflavin T fluorescence was measured by setting excitation at 450 nm and emission at 482 nm. […] The aggregation curves were fitted using a 4 parameter logistic function and the t1/2, elongation rate and lag time were estimated as described elsewhere.
(§1) Scale bar = 200 nm. The raw data can be found in S2 File.

[2] = Morphologic analysis of aggregation products by transmission electron microscopy (TEM); type: physicochemical; conditions: negative stain 2% uranyl acetate; products of the aggregation kinetics
Excerpt: Samples from aggregation kinetic assay were applied to 300 mesh, Formvar-carbon-coated Cu grids (Electron Microscopy Science, USA), followed by negative stain with 2% uranyl acetate, pH 4.8, for 30–60 s.
as §1

[3] = Amylin aggregation kinetics by ThT fluorescence, up to 12 h at varying pH; type: physicochemical; conditions: 50 μM peptide, 10 mM buffer, 20 μM ThT, 2% DMSO, 25°C
[4] = Pharmacokinetics after subcutaneous administration in mice (serum amylin by ELISA); type: in vivo
Method: Swiss male mice (8 weeks old; n = 4 per group) were administrated of free or monoPEGylated human amylin (both at 400 μg peptide / kg body weight) by subcutaneous route. At the indicated time interval, blood was collected with glass capillary tubes from retro-orbital access and the serum was separated. The concentration of amylin in the plasma was evaluated by ELISA (Merck Millipore, cat # EZHA-52K) by following the manufacturer protocol. The sensitivity of the ELISA assay kit for the monoPEGylated human amylin product was similar to the non-conjugated human amylin as inferred from control analytical curves. In case needed, the mice plasma samples were diluted accordingly in order to achieve the desired concentration range of the ELISA kit. Glucagon was evaluated from the same serum samples, by using an ELISA kit (Merck Millipore, Cat # EZGLU-30K) according to instructions of the manufacturer.
Continuous lines are best fitting of single-exponential decay function to data. b) Modulation of glucagon. […] The raw data can be found in S2 File.

[5] = (unit not given), Swiss male mice, s.c., 400 μg peptide/kg

## PEGylated human amylin: human amylin monoconjugated at the N-terminal Lys1 region with 5 kDa methoxyl polyethylene glycol succinimidyl carbonate (mPEGsc5k) (KCNTATCATQRLANFLVHSSNNFGAILSSTNVGSNTY-NH2; disulfide 2-7; also: one mPEG 5 kDa (mPEGsc5k) on a Lys1 amino group)
[1]
  changes in ThT fluorescence up to 7 days: only minor changes in ThT fluorescence
[2]
  fibrils by TEM after aggregation assay: no fibrils were observed
[3]
  changes in ThT fluorescence in the 12 h time window: did not observe changes in fluorescence
[4]; [5]
  Half Life (One phase decay, best-fit value): 2.988
  Tau (One phase decay, best-fit value): 4.311
[4]; male, Swiss, mouse, in vivo, sc
  half-life in vivo: 179 min
